Laboratory results from US20230212319A1, “NOVEL ANTIGEN BINDING DOMAINS AND SYNTHETIC ANTIGEN RECEPTORS INCORPORATING THE SAME” (University of Southern California, priority 2020, published 2023).

B1: 22056 (protein)
chain: MALPVTALLLPLALLLHAARPQLQLQESGPGLVKPSETLSLTCTVSGDSISSGDYYWGWIRQPPGKGLEWIGHIYYSGVTYYNPSLKSRVTISVDTSRNQFSLKLSSVTAADTAVYYCTREDSSNWRSRGQGTLVTVSSLEGSPIKTDVITMDPKDNCSKDANDTLLLQLTNTSAYYMYLLLLLKSVVYFAIITCCLLRRTAFCCNGEKSRAKRSGSGATNFSLLKQAGDVEENPGPTSMDWIWRILFLVGAATGAHSFEVQLVESGGGVVQPGRSLRLSCAASGFSFSGYGMHWVRQAPGKGLEWVAYISYDGSNKYYADSVKGRFTISRDNSKNTLYLQMNSLRAEDTAVYYCAKDPAWGLRLGESSSYDFDIWGQGTMVTVSSTRDKTHTCPPCPAGRADCGFTSESYQQGVLSATILYEILLGKATLYAVLVSALVLMAMVKRKDFRAKRSGSGATNFSLLKQAGDVEENPGPSRGHMTEYKPTVRLATRDDVPRAVRTLAAAFADYPATRHTVDPDRHIERVTELQELFLTRVGLDIGKVWVADDGAAVAVWTTPESVEAGAVFAEIGPRMAELSGSRLAAQQQMEGLLAPHRPKEPAWFLATVGVSPDHQGKGLGSAVVLPGVEAAERAGVPAFLETSAPRNLPFYERLGFTVTADVEVPEGPRTWCMTRKPGA
B2: 22080 (protein)
chain: MALPVTALLLPLALLLHAARPQLQLQESGPGLVKPSETLSLTCTVSGDSISSGDYYWGWIRQPPGKGLEWIGHIYYSGVTYYNPSLKSRVTISVDTSRNQFSLKLSSVTAADTAVYYCTREDSSNWRSRGQGTLVTVSSLESGGGGSFEEVQLLESGGGLVQPGGSLRLSCAASGFTFSSYAMSWVRQAPGKGLEWVSSISGSGDYIYYADSVKGRFTISRDISKNTLYLQMNSLRAEDTAVYYCAKEGTGANSSLADYRGQGTLVTVSSTRASTKGPSVFPLAPSSKSTSGGTAALGCLVKDYFPEPVTVSWNSGALTSGVHTFPAVLQSSGLYSLSSVVTVPSSSLGTQTYICNVNHKPSNTKVDKRVEPKSCIPEDTFFPSPESSCDVKLVEKSFETDTNLNFQNLSVIGFRILLLKVAGFNLLMTLRLWSSRAKRSGSGVKQTLNFDLLKLAGDVESNPGPSRGHMTEYKPTVRLATRDDVPRAVRTLAAAFADYPATRHTVDPDRHIERVTELQELFLTRVGLDIGKVWVADDGAAVAVWTTPESVEAGAVFAEIGPRMAELSGSRLAAQQQMEGLLAPHRPKEPAWFLATVGVSPDHQGKGLGSAVVLPGVEAAERAGVPAFLETSAPRNLPFYERLGFTVTADVEVPEGPRTWCMTRKPGA
B3: 22033 (protein)
chain: MALPVTALLLPLALLLHAARPQLQLQESGPGLVKPSETLSLTCTVSGDSISSGDYYWGWIRQPPGKGLEWIGHIYYSGVTYYNPSLKSRVTISVDTSRNQFSLKLSSVTAADTAVYYCTREDSSNWRSRGQGTLVTVSSLEDKTHTCPPCPAEVKTDSTDHVKPKETENTKQPSKSCHKPKAIVHTEKVNMMSLTVLGLRMLFAKTVAVNFLLTAKLFFLRAKRSGSGVKQTLNFDLLKLAGDVESNPGPTSMDWIWRILFLVGAATGAHSFEVQLVESGGGVVQPGRSLRLSCAASGFSFSGYGMHWVRQAPGKGLEWVAYISYDGSNKYYADSVKGRFTISRDNSKNTLYLQMNSLRAEDTAVYYCAKDPAWGLRLGESSSYDFDIWGQGTMVTVSSTRIQNPDPAVYQLRDSKSSDKSVCLFTDFDSQTNVSQSKDSDVYITDKCVLDMRSMDFKSNSAVAWSNKSDFACANAFNNSIIPEDTFFPSPESSCDVKLVEKSFETDTNLNFQNLSVIGFRILLLKVAGFNLLMTLRLWSSRAKRSGSGVKQTLNFDLLKLAGDVESNPGPSRGHMTEYKPTVRLATRDDVPRAVRTLAAAFADYPATRHTVDPDRHIERVTELQELFLTRVGLDIGKVWVADDGAAVAVWTTPESVEAGAVFAEIGPRMAELSGSRLAAQQQMEGLLAPHRPKEPAWFLATVGVSPDHQGKGLGSAVVLPGVEAAERAGVPAFLETSAPRNLPFYERLGFTVTADVEVPEGPRTWCMTRKPGA
B4: 22032 (protein)
chain: MALPVTALLLPLALLLHAARPQLQLQESGPGLVKPSETLSLTCTVSGDSISSGDYYWGWIRQPPGKGLEWIGHIYYSGVTYYNPSLKSRVTISVDTSRNQFSLKLSSVTAADTAVYYCTREDSSNWRSRGQGTLVTVSSLEGSEVKTDSTDHVKPKETENTKQPSKSCHKPKAIVHTEKVNMMSLTVLGLRMLFAKTVAVNFLLTAKLFFLRAKRSGSGVKQTLNFDLLKLAGDVESNPGPTSMDWIWRILFLVGAATGAHSFEVQLVESGGGVVQPGRSLRLSCAASGFSFSGYGMHWVRQAPGKGLEWVAYISYDGSNKYYADSVKGRFTISRDNSKNTLYLQMNSLRAEDTAVYYCAKDPAWGLRLGESSSYDFDIWGQGTMVTVSSTRIQNPDPAVYQLRDSKSSDKSVCLFTDFDSQTNVSQSKDSDVYITDKCVLDMRSMDFKSNSAVAWSNKSDFACANAFNNSIIPEDTFFPSPESSCDVKLVEKSFETDTNLNFQNLSVIGFRILLLKVAGFNLLMTLRLWSSRAKRSGSGVKQTLNFDLLKLAGDVESNPGPSRGHMTEYKPTVRLATRDDVPRAVRTLAAAFADYPATRHTVDPDRHIERVTELQELFLTRVGLDIGKVWVADDGAAVAVWTTPESVEAGAVFAEIGPRMAELSGSRLAAQQQMEGLLAPHRPKEPAWFLATVGVSPDHQGKGLGSAVVLPGVEAAERAGVPAFLETSAPRNLPFYERLGFTVTADVEVPEGPRTWCMTRKPGA
B5: 22069 (protein)
chain: MALPVTALLLPLALLLHAARPQLQLQESGPGLVKPSETLSLTCTVSGDSISSGDYYWGWIRQPPGKGLEWIGHIYYSGVTYYNPSLKSRVTISVDTSRNQFSLKLSSVTAADTAVYYCTREDSSNWRSRGQGTLVTVSSLEGGGGSGGGGSGGGGSVEIQNPDPAVYQLRDSKSSDKSVCLFTDFDSQTNVSQSKDSDVYITDKCVLDMRSMDFKSNSAVAWSNKSDFACANAFNNSIIPEDTFFPSPESSCDVKLVEKSFETDTNLNFQNLSVIGFRILLLKVAGFNLLMTLRLWSSSSRAKRSGSGVKQTLNFDLLKLAGDVESNPGPTSMDWIWRILFLVGAATGAHSFEVQLLESGGGLIQPGGSLRLSCAASGFTFSSHAMTWVRQAPGKGLEWVSAISGSGDYTHYADSVKGRFTISRDNSKNTVYLQMNSLRAEDSAVYYCAKDEDGGSLLGHRGQGTLVTVSSTRIQNPDPAVYQLRDSKSSDKSVCLFTDFDSQTNVSQSKDSDVYITDKCVLDMRSMDFKSNSAVAWSNKSDFACANAFNNSIIPEDTFFPSPESSCDVKLVEKSFETDTNLNFQNLSVIGFRILLLKVAGFNLLMTLRLWSSRAKRSGSGVKQTLNFDLLKLAGDVESNPGPSRGHMTEYKPTVRLATRDDVPRAVRTLAAAFADYPATRHTVDPDRHIERVTELQELFLTRVGLDIGKVWVADDGAAVAVWTTPESVEAGAVFAEIGPRMAELSGSRLAAQQQMEGLLAPHRPKEPAWFLATVGVSPDHQGKGLGSAVVLPGVEAAERAGVPAFLETSAPRNLPFYERLGFTVTADVEVPEGPRTWCMTRKPGA

system: RAJI cells; experiment: JNG assay, co-culture with RAJI cells; type: cell-based; details: JNG cells expressing construct, co-culture with Raji
Procedure, shortened: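 Read-out is NFAT-driven GFP measured by flow cytometry after ~4–18 h co-culture of SAR-expressing JNG cells with target cells (E:T about 1:2). SARs were introduced by lentiviral spinfection and selected with puromycin or blasticidin when possible; scores (+/- to 5+ ≈ 5–50% GFP+) are relative to parental JNG cells.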

Molecule	NFAT-GFP ASSAY: Raji
B1	+/- (refer to approximately 5%, 10%, 20%, 30%, 40% and 50% GFP positive cells)
B2	+ (refer to approximately 5%, 10%, 20%, 30%, 40% and 50% GFP positive cells)
B3	+/- (refer to approximately 5%, 10%, 20%, 30%, 40% and 50% GFP positive cells)
B4	+/- (refer to approximately 5%, 10%, 20%, 30%, 40% and 50% GFP positive cells)
B5	+ (refer to approximately 5%, 10%, 20%, 30%, 40% and 50% GFP positive cells)
